Bridge positions count the residues as written; N and C are the ends. Square brackets hold non-standard residues; d marks the D form. Ends that are not written are not given here. * marks the point of attachment. Acetyl(2-(4-imidazolyl)) = O=C(Cc1c[nH]cn1)*; Aib = CC(C)(N)C(=O)O
T1: human GIP receptor (human, UniProt P48546 22-466)
T1 sequence (looked up): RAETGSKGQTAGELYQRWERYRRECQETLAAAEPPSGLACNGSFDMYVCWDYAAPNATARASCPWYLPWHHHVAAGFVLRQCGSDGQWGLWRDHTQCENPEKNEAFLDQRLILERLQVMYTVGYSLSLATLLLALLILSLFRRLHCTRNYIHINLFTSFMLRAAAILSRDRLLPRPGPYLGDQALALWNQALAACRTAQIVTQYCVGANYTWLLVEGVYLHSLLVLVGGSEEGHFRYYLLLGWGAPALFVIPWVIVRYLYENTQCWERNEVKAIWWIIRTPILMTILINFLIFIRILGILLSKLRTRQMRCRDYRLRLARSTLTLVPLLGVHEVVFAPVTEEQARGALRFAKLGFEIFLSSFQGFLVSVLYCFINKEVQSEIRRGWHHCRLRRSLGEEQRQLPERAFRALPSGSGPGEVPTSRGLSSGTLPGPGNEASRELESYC

B1: triple agonist of SEQ ID NO: 62 (peptide)
peptide: {Acetyl(2-(4-imidazolyl))}-[Aib]QGTFTSDKSKYLDERAAQDFVQWLLDGGPSSGAPPPS
B2: triple agonist of SEQ ID NO: 68 (peptide)
peptide: Y[Aib]QGTFTSDYSKCLDEKAAKEFVQWLLDHHPSSGQPPPS
modifications: bridge 16-20
B3: triple agonist of SEQ ID NO: 83 (peptide)
peptide: {Acetyl(2-(4-imidazolyl))}-[Aib]EGTFTSDYSIAMDEIHQKDFVNWLLAQC
modifications: bridge 15-19
B4: triple agonist of SEQ ID NO: 9 (peptide)
peptide: H[Aib]QGTFTSDVSKYLDGQAAQEFVAWLLAGC
B5: triple agonist of SEQ ID NO: 63 (peptide)
peptide: {Acetyl(2-(4-imidazolyl))}-[Aib]QGTFTSDCSKYLDERAAQDFVQWLLDGGPSSGAPPPS
B6: triple agonist of SEQ ID NO: 78 (peptide)
peptide: H[Aib]QGTFTSDYSKYLDEKRQKEFVQWLLDTKC
modifications: bridge 16-20
B7: triple agonist of SEQ ID NO: 82 (peptide)
peptide: {Acetyl(2-(4-imidazolyl))}-[Aib]QGTFTSDYSKYLDEKRQKEFVQWLLDTC
modifications: bridge 15-19
B8: triple agonist of SEQ ID NO: 79 (peptide)
peptide: H[Aib]EGTFTSDYSIAMDEIHQKDFVNWLLAQKC
modifications: bridge 16-20
B9: triple agonist of SEQ ID NO: 77 (peptide)
peptide: Y[Aib]QGTFTSDYSKYLDEKAAKDFVQWLLDHHPSSGQPPPSC
modifications: bridge 16-20
B10: triple agonist of SEQ ID NO: 75 (peptide)
peptide: Y[Aib]QGTFTSDYSKYLDEKAAKEFVQWLLDHHPSSGQPPPSC
modifications: bridge 16-20
B11: triple agonist of SEQ ID NO: 81 (peptide)
peptide: {Acetyl(2-(4-imidazolyl))}-[Aib]QGTFTSDYSKYLDEKRQKEFVQWLLNTC
modifications: bridge 15-19
B12: triple agonist of SEQ ID NO: 84 (peptide)
peptide: {Acetyl(2-(4-imidazolyl))}-[Aib]EGTFTSDYSIAMDEIHQKDFVDWLLAEC
modifications: bridge 15-19
B13: triple agonist of SEQ ID NO: 72 (peptide)
peptide: Y[Aib]QGTFTSDCSKYLDERAAKDFVQWLLDHHPSSGQPPPS
modifications: bridge 16-20
B14: triple agonist of SEQ ID NO: 65 (peptide)
peptide: H[Aib]QGTFTSDYSKCLDEKRAKEFVQWLLDHHPSSGQPPPS
modifications: bridge 16-20

Molecular target: human GLP-1 receptor (human, UniProt P43220 24-463)
Experiment: cell-based or functional assay

Going from B1 to B2, the “In vitro activity compared to native-type peptide (%), vs GLP-1” value (from here on “In vitro activity … (%), vs GLP-1”) rises from 5.2% to 27.9%.

Going from B3 to B4, the “In vitro activity … (%), vs GLP-1” value falls from 47.3% to 32.1%.

Compared with B5, B6 is higher in “In vitro activity … (%), vs GLP-1” value: 15.3% for the first, 51% for the second.

First: B7
Second: B8
The “In vitro activity … (%), vs GLP-1” value of the first is lower: 9.5% for the first, 41.5% for the second.

Going from B9 to B10, the “In vitro activity … (%), vs GLP-1” value falls from 38.7% to 35.1%.

Compared with B11, B12 is lower in “In vitro activity … (%), vs GLP-1” value: 7.8% for the first, 4.2% for the second.

Going from B13 to B14, the “In vitro activity … (%), vs GLP-1” value rises from 11.5% to 95.4%.

Molecular target: human GCG receptor (human, UniProt P47871 26-477)
Experiment: cell-based or functional assay

Sequence of human GCG receptor (P47871 26-477): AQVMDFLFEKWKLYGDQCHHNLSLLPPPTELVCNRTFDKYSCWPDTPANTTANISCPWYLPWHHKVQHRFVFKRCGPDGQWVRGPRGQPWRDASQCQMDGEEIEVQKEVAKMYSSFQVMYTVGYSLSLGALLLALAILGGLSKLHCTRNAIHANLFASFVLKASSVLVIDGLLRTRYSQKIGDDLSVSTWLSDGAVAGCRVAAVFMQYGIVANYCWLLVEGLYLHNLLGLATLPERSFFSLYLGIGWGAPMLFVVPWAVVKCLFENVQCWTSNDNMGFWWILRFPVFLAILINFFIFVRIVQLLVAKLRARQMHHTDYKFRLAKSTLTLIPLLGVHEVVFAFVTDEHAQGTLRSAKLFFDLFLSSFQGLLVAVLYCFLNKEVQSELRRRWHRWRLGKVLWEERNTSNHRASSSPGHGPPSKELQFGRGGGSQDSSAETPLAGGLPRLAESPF

First: B1
Second: B2
The “In vitro activity compared to native-type peptide (%), vs Glucagon” value (from here on “In vitro activity … (%), vs Glucagon”) of the first is lower: less than 0.1% for the first, 8.8% for the second.

First: B3
Second: B4
The “In vitro activity … (%), vs Glucagon” value of the first is higher: 1.3% for the first, 0.13% for the second.

Going from B5 to B6, the “In vitro activity … (%), vs Glucagon” value rises from less than 0.1% to 14%.

Going from B7 to B8, the “In vitro activity … (%), vs Glucagon” value rises from 1.1% to 4.9%.

First: B9
Second: B10
The “In vitro activity … (%), vs Glucagon” value of the first is higher: 12.2% for the first, 8.5% for the second.

Going from B11 to B12, the “In vitro activity … (%), vs Glucagon” value falls from 0.3% to less than 0.1%.

Compared with B13, B14 is higher in “In vitro activity … (%), vs Glucagon” value: 1% for the first, 25.2% for the second.

Molecular target: T1, human GIP receptor
Experiment: cell-based or functional assay

First: B1
Second: B2
The “In vitro activity compared to native-type peptide (%), vs GIP” value (“In vitro activity … (%), vs GIP” for short) of the first is lower: less than 0.1% for the first, 107% for the second.

Compared with B3, B4 is lower in “In vitro activity … (%), vs GIP” value: 0.4% for the first, less than 0.1% for the second.

First: B5
Second: B6
The “In vitro activity … (%), vs GIP” value of the first is lower: less than 0.1% for the first, 0.12% for the second.

First: B7
Second: B8
The “In vitro activity … (%), vs GIP” value of the first is lower: less than 0.1% for the first, 1.4% for the second.

Going from B9 to B10, the “In vitro activity … (%), vs GIP” value falls from 35.5% to 18%.

B11 and B12 cannot be ordered by “In vitro activity … (%), vs GIP” value: less than 0.1% for the first, less than 0.1% for the second.

Compared with B13, B14 is higher in “In vitro activity … (%), vs GIP” value: 1.6% for the first, 11.6% for the second.
